Laboratory results taken from patent US6897044 (Biogen, dated 2005).

T1: CD20 antigen (human, UniProt P11836 1-297)
T1 construct: whole, on cells; Carried by the cell lines SKW and SB (CD20+/CD23+) and DHL-4 (CD20+/CD23-); also called human CD20
T1 sequence (looked up): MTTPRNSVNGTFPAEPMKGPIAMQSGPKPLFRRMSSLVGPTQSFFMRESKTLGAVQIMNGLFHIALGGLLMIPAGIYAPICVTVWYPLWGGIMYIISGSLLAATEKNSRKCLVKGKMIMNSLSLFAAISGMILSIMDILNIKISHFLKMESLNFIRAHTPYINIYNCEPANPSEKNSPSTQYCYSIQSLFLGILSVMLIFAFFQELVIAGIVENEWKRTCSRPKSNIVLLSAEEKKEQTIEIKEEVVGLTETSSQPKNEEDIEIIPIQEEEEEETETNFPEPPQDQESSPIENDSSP


Experiments:
[1] = target: T1, CD20 antigen; assay: competitive binding on SKW cells against murine 2B8, flow cytometry with FITC anti-human IgG (by the method, 2B8 was serially diluted and C2B8 fixed at 1 µg/ml)
Protocol: (§1) Binding of monomer and dimerized antibody to various cells was evaluated by indirect immunostaining using FITC anti-human IgG and analyzed using flow cytometry (indirect IF). Cells (2×10^6 viable cells in 0.1 ml cmfPB S/2% Fetal Calf Serum/0.1% Sodium Azide, PBS/FCS buffer) were incubated for one hour on ice with 0.1 ml of 5 fold serially diluted antibody. Cells were twice washed by centrifugation (200×g) using 2 ml PBS/wash and suspended in 0.2 ml FITC conjugated Goat (Fab')_2 anti-human IgG (Jackson Immunoresearch #30869, 5 µg/ml in PBSIFCS buffer). After 30-min. incubation on ice, cells were again washed in PBS and suspended in 0.2 ml 0.5% freshly diluted formaldehyde, capped and stored at 4° C. until analysis. The amount of cell bound antibody was determined by flow cytometry (FACScan, Becton-Dickenson, Mountain View, Calif.).
(§2) The binding affinity of the C2B8 homodimer and monomer for the CD20 antigen was compared using a competitive binding assay (FIG. 10). SKW cells were first incubated for 30 minutes on ice with various amounts of 5-fold serially diluted murine (anti-CD20) MAb 2B8, and by 0.1 ml (at 1 µg/ml) of either C2B8 monomer or homodimer. Indirect IF, as described for FIG. 9, evaluated the amount of C2B8 binding. […]

[2] = target: T1, CD20 antigen; assay: competitive binding on SKW cells against murine 2B8, flow cytometry with FITC anti-human IgG (by the method, 2B8 was serially diluted and homodimer fixed at 1 µg/ml)
Protocol: as §1, §2

| IC50 [1] [µg/mL] | IC50 [2] [µg/mL] | Binder |
| --- | --- | --- |
| 9.8 | – | C2B8, mouse/human chimeric monoclonal antibody specific for CD20 (150 kDa IgG monomer) (antibody, V domains shown, also called C2B8 monomer; chimeric C2B8) VH: QVQLQQPGAELVKPGASVKMSCKASGYTFTSYNMHWVKQTPGRGLEWIGAIYPGNGDTSYNQKFKGKATLTADKSSSTAYMQLSSLTSEDSAVYYCARSTYYGGDWYFNVWGAGTTVTVSA VL: QIVLSQSPAILSASPGEKVTMTCRASSSVSYIHWFQQKPGSSPKRWIYATSNLASGVPVRFSGSGSGTSYSLTISRVEAEDAATYYCQQWTSNPPTFGGGAKLEIKR |
| – | 10.4 | C2B8 (-s-s-) homodimer, disulfide linked IgG/IgG homodimer of C2B8/SH (300 kDa, tetravalent) (antibody, V domains shown, engineered cysteine near the carboxyl terminus of the gamma 1 chain (printed as position 444 and as position 445) joins the two IgG molecules by an intermolecular disulfide bond, also called C2B8 (disulfide linked) homodimer; C2B8 homodimer) VH: QVQLQQPGAELVKPGASVKMSCKASGYTFTSYNMHWVKQTPGRGLEWIGAIYPGNGDTSYNQKFKGKATLTADKSSSTAYMQLSSLTSEDSAVYYCARSTYYGGDWYFNVWGAGTTVTVSA VL: QIVLSQSPAILSASPGEKVTMTCRASSSVSYIHWFQQKPGSSPKRWIYATSNLASGVPVRFSGSGSGTSYSLTISRVEAEDAATYYCQQWTSNPPTFGGGAKLEIKR |
